B1: RTP4 (parent)
chain: AFGWFRCSSCQRSWASAQVQILCH
B2: C10orf62 (parent)
chain: GHSHHSHHGHPSHQSHSLPNRRH

Variants of: B1
Assay: protein stability index of a GFP-peptide fusion (GPS, HEK-293T) (PSI 1-6); higher = more stable
Details: c terminus: a fixed tail appended
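Note: lentivirally expressed fusions sorted by FACS into six bins by GFP to DsRed ratio, PSI derived from sequencing read proportions per bin multiplied by bin number.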

Row | Variant | protein stability index
1 | AFGWFRCSSCQRSWASAQVQYLCH [I21Y] | 3.2
2 | AFGWFRCSSCQRSWASAQVQNLCH [I21N] | 1.68
3 | AFGWFRCSSCQRSWASAQVQLLCH [I21L] | 2.34
4 | AFGWFRCSSCQRSWASAQVQQLCH [I21Q] | 1.62
5 | AFGWFRCSSCQRSWASAQVQWLCH [I21W] | 1.37
6 | AFGWFRCSSCQRSWASAQVQRLCH [I21R] | 1.72
7 | AFGWFRCSSCQRSWASAQVQTLCH [I21T] | 2.9
8 | AFGWFRCSSCQRSWASAQVQSLCH [I21S] | 3.43
9 | AFGWFRCSSCQRSWASAQVQILCD [H24D] | 1.97
10 | AFGWFRCSSCQRSWASAQVQILCR [H24R] | 3.52
11 | AFGWFRCSSCQRSWASAQVQILCY [H24Y] | 3.39
12 | AFGWFRCSSCQRSWASAQVQILCA [H24A] | 1.84
13 | AFGWFRCSSCQRSWASAQVQILCW [H24W] | 1.61
14 | AFGWFRCSSCQRSWASAQVQILCF [H24F] | 3.12
15 | AFGWFRCSSCQRSWASAQVQILCP [H24P] | 3.58
16 | AFGWFRCSSCQRSWASAQVQILCI [H24I] | 3.64
17 | AFGWFRCSSCQRSWASAQVQILCN [H24N] | 3.06
18 | AFGWFRCSSCQRSWASAQVQILCK [H24K] | 1.83
19 | AFGWFRCSSCQRSWASAQVQILCV [H24V] | 4.55
20 | AFGWFRCSSCQRSWASAQVQILMH [C23M] | 3.79
21 | AFGWFRCSSCQRSWASAQVQILEH [C23E] | 2.8
22 | AFGWFRCSSCQRSWASAQVQILQH [C23Q] | 3.85
23 | AFGWFRCSSCQRSWASAQVQILLH [C23L] | 2.78

Row | Variant | protein stability index
24 | AFGWFRCSSCQRSWASAQVQILFH [C23F] | 2.59
25 | AFGWFRCSSCQRSWASAQVQILRH [C23R] | 1.49
26 | AFGWFRCSSCQRSWASAQVQILYH [C23Y] | 2.81
27 | AFGWFRCSSCQRSWASAQVQILTH [C23T] | 1.93
28 | AFGWFRCSSCQRSWASAQVQILSH [C23S] | 1.8
29 | AFGWFRCSSCQRSWASAQVQILIH [C23I] | 4.29
30 | AFGWFRCSSCQRSWASAQVQILHH [C23H] | 1.84
31 | AFGWFRCSSCQRSWASAQVQILNH [C23N] | 2.21
32 | AFGWFRCSSCQRSWASAQVQILDH [C23D] | 1.92
33 | AFGWFRCSSCQRSWASAQVQILPH [C23P] | 2.83
34 | AFGWFRCSSCQRSWASAQVQILKH [C23K] | 2.35
35 | AFGWFRCSSCQRSWASAQVQIWCH [L22W] | 2.17
36 | AFGWFRCSSCQRSWASAQVQIPCH [L22P] | 3.05
37 | AFGWFRCSSCQRSWASAQVQICCH [L22C] | 1.4
38 | AFGWFRCSSCQRSWASAQVQIRCH [L22R] | 1.61
39 | AFGWFRCSSCQRSWASAQVQIACH [L22A] | 2.09
40 | AFGWFRCSSCQRSWASAQVQITCH [L22T] | 1.65
41 | AFGWFRCSSCQRSWASAQVQIGCH [L22G] | 1.41
42 | AFGWFRCSSCQRSWASAQVQIHCH [L22H] | 2.13
43 | AFGWFRCSSCQRSWASAQVQINCH [L22N] | 2.66
44 | AFGWFRCSSCQRSWASAQVQIMCH [L22M] | 1.32
45 | AFGWFRCSSCQRSWASAQVQIDCH [L22D] | 1.79

Variants of: B2
Assay: as above
Details: c terminus: native

Row | Variant | protein stability index
46 | GHSHHSHHGDPSHQSHSLPNRRH [H10D] | 1.74
47 | GHSHHSHHGGPSHQSHSLPNRRH [H10G] | 2.34
48 | GHSHHSHHGIPSHQSHSLPNRRH [H10I] | 2.96
49 | GHSHHSHHGAPSHQSHSLPNRRH [H10A] | 3.41
50 | GHSHHSHHGCPSHQSHSLPNRRH [H10C] | 3.79
51 | GHSHHSHHGEPSHQSHSLPNRRH [H10E] | 1.48
52 | GHSHHSHHGKPSHQSHSLPNRRH [H10K] | 2.86
53 | GHSHHTHHGHPSHQSHSLPNRRH [S6T] | 3.3
54 | GHSHHIHHGHPSHQSHSLPNRRH [S6I] | 2.27
55 | GHSHHMHHGHPSHQSHSLPNRRH [S6M] | 3.95
56 | GHSHHAHHGHPSHQSHSLPNRRH [S6A] | 4.79
57 | GHSHHQHHGHPSHQSHSLPNRRH [S6Q] | 3.1
58 | GHSHHKHHGHPSHQSHSLPNRRH [S6K] | 1.55
59 | GHSHHEHHGHPSHQSHSLPNRRH [S6E] | 1.84
60 | GHSHHYHHGHPSHQSHSLPNRRH [S6Y] | 3.47
61 | GHSHHVHHGHPSHQSHSLPNRRH [S6V] | 2.71
62 | GHSHHHHHGHPSHQSHSLPNRRH [S6H] | 4.03
63 | GHSHHDHHGHPSHQSHSLPNRRH [S6D] | 2.08
64 | GHSHHNHHGHPSHQSHSLPNRRH [S6N] | 3.28
65 | GHSHHLHHGHPSHQSHSLPNRRH [S6L] | 3.37
66 | GHSHHRHHGHPSHQSHSLPNRRH [S6R] | 2.98
67 | GHSHHPHHGHPSHQSHSLPNRRH [S6P] | 2.12
68 | GHSHHWHHGHPSHQSHSLPNRRH [S6W] | 4
69 | GHSHHFHHGHPSHQSHSLPNRRH [S6F] | 2.95
70 | GHSHHSEHGHPSHQSHSLPNRRH [H7E] | 2.1
71 | GHSHHSCHGHPSHQSHSLPNRRH [H7C] | 2.65

Row | Variant | protein stability index
72 | GHSHHSLHGHPSHQSHSLPNRRH [H7L] | 3.37
73 | GHSHHSGHGHPSHQSHSLPNRRH [H7G] | 1.83
74 | GHSHHSRHGHPSHQSHSLPNRRH [H7R] | 3.22
75 | GHSHHSAHGHPSHQSHSLPNRRH [H7A] | 2.72
76 | GHSHHSNHGHPSHQSHSLPNRRH [H7N] | 2.44
77 | GHSHHSMHGHPSHQSHSLPNRRH [H7M] | 1.87
78 | GHSHHSPHGHPSHQSHSLPNRRH [H7P] | 4.21
79 | GHSHHSDHGHPSHQSHSLPNRRH [H7D] | 3.05
80 | GHSHHSTHGHPSHQSHSLPNRRH [H7T] | 2.66
81 | GHSHHSWHGHPSHQSHSLPNRRH [H7W] | 2.41
82 | GHSHHSKHGHPSHQSHSLPNRRH [H7K] | 2.14
83 | GHSHHSSHGHPSHQSHSLPNRRH [H7S] | 3.47
84 | GSSHHSHHGHPSHQSHSLPNRRH [H2S] | 3.15
85 | GKSHHSHHGHPSHQSHSLPNRRH [H2K] | 3.36
86 | GGSHHSHHGHPSHQSHSLPNRRH [H2G] | 2.22
87 | GRSHHSHHGHPSHQSHSLPNRRH [H2R] | 3.13
88 | GQSHHSHHGHPSHQSHSLPNRRH [H2Q] | 3.15
89 | GESHHSHHGHPSHQSHSLPNRRH [H2E] | 2.36
90 | GDSHHSHHGHPSHQSHSLPNRRH [H2D] | 2.97
91 | GVSHHSHHGHPSHQSHSLPNRRH [H2V] | 1.5
92 | GFSHHSHHGHPSHQSHSLPNRRH [H2F] | 3.23
93 | GTSHHSHHGHPSHQSHSLPNRRH [H2T] | 3.56
94 | GLSHHSHHGHPSHQSHSLPNRRH [H2L] | 3.18
95 | GASHHSHHGHPSHQSHSLPNRRH [H2A] | 3.05
96 | GMSHHSHHGHPSHQSHSLPNRRH [H2M] | 3.72

From the supplement of paper PMC10567573
